Results taken from the MegaScale stability set (Tsuboyama et al. 2023).

B1: EHEE_rd4_0726 (parent)
chain: DIEITTNGEEDAKRVIKELQKRNLEYHIEVHGNQWVIKVR

Variants of: B1
Assay: folding stability dG (cDNA display proteolysis); higher = more stable
Conditions: PBS, room temperature

Variant | folding stability dG [kcal/mol]
DIEITTNEEEDAKRVIKELQKRNLEYHIEVHGNQWVIKVR | 1.77
DIEITTNREEDAKRVIKELQKRNLEYHIEVHGNQWVIKVR | 2.33
DIEITTNFEEDAKRVIKELQKRNLEYHIEVHGNQWVIKVR | 1.97
DIEITTNAEEDAKRVIKELQKRNLEYHIEVHGNQWVIKVR | 1.91
DIEITTNMEEDAKRVIKELQKRNLEYHIEVHGNQWVIKVR | 1.69
DIEITTNCEEDAKRVIKELQKRNLEYHIEVHGNQWVIKVR | 2.33
DIEITTNVEEDAKRVIKELQKRNLEYHIEVHGNQWVIKVR | 1.92
DIEITTNDEEDAKRVIKELQKRNLEYHIEVHGNQWVIKVR | 2.64
DIEITTNWEEDAKRVIKELQKRNLEYHIEVHGNQWVIKVR | 1.75
DIEITTNYEEDAKRVIKELQKRNLEYHIEVHGNQWVIKVR | 1.92
DIEITTNQEEDAKRVIKELQKRNLEYHIEVHGNQWVIKVR | 1.84
DIEITTNSEEDAKRVIKELQKRNLEYHIEVHGNQWVIKVR | 3.27
DIEITTNKEEDAKRVIKELQKRNLEYHIEVHGNQWVIKVR | 2.02
DIEITTNHEEDAKRVIKELQKRNLEYHIEVHGNQWVIKVR | 2.1
DIEITTNIEEDAKRVIKELQKRNLEYHIEVHGNQWVIKVR | 1.95
DIEITTNTEEDAKRVIKELQKRNLEYHIEVHGNQWVIKVR | 3.07
DIEITTNPEEDAKRVIKELQKRNLEYHIEVHGNQWVIKVR | 0.219
DIEITTNLEEDAKRVIKELQKRNLEYHIEVHGNQWVIKVR | 1.83
DIEITTNNEEDAKRVIKELQKRNLEYHIEVHGNQWVIKVR | 3.23
DIEITTNGKEDAKRVIKELQKRNLEYHIEVHGNQWVIKVR | 2.06
DIEITTNGREDAKRVIKELQKRNLEYHIEVHGNQWVIKVR | 2.19

Variant | folding stability dG [kcal/mol]
DIEITTNGDEDAKRVIKELQKRNLEYHIEVHGNQWVIKVR | 1.5
DIEITTNGHEDAKRVIKELQKRNLEYHIEVHGNQWVIKVR | 1.92
DIEITTNGLEDAKRVIKELQKRNLEYHIEVHGNQWVIKVR | 2.36
DIEITTNGMEDAKRVIKELQKRNLEYHIEVHGNQWVIKVR | 2.12
DIEITTNGNEDAKRVIKELQKRNLEYHIEVHGNQWVIKVR | 1.36
DIEITTNGPEDAKRVIKELQKRNLEYHIEVHGNQWVIKVR | 2.46
DIEITTNGFEDAKRVIKELQKRNLEYHIEVHGNQWVIKVR | 2.52
DIEITTNGQEDAKRVIKELQKRNLEYHIEVHGNQWVIKVR | 1.92
DIEITTNGIEDAKRVIKELQKRNLEYHIEVHGNQWVIKVR | 2.48
DIEITTNGAEDAKRVIKELQKRNLEYHIEVHGNQWVIKVR | 2.26
DIEITTNGGEDAKRVIKELQKRNLEYHIEVHGNQWVIKVR | 1.76
DIEITPNGEEDAKRVIKELQKRNLEYHIEVHGNQWVIKVR | 1.51
DIEITYNGEEDAKRVIKELQKRNLEYHIEVHGNQWVIKVR | 1.59
DIEITLNGEEDAKRVIKELQKRNLEYHIEVHGNQWVIKVR | 2.84
DIEITWNGEEDAKRVIKELQKRNLEYHIEVHGNQWVIKVR | 1.04
DIEITMNGEEDAKRVIKELQKRNLEYHIEVHGNQWVIKVR | 2.38
DIEITRNGEEDAKRVIKELQKRNLEYHIEVHGNQWVIKVR | 1.53
DIEITSNGEEDAKRVIKELQKRNLEYHIEVHGNQWVIKVR | 1.47
DIEITINGEEDAKRVIKELQKRNLEYHIEVHGNQWVIKVR | 3.08
DIEITNNGEEDAKRVIKELQKRNLEYHIEVHGNQWVIKVR | 0.494
DIEITVNGEEDAKRVIKELQKRNLEYHIEVHGNQWVIKVR | 3.55

Variant | folding stability dG [kcal/mol]
DIEITQNGEEDAKRVIKELQKRNLEYHIEVHGNQWVIKVR | 0.841
DIEITKNGEEDAKRVIKELQKRNLEYHIEVHGNQWVIKVR | 1.22
DIEITTHGEEDAKRVIKELQKRNLEYHIEVHGNQWVIKVR | 2.42
DIEITTPGEEDAKRVIKELQKRNLEYHIEVHGNQWVIKVR | 1.36
DIEITTRGEEDAKRVIKELQKRNLEYHIEVHGNQWVIKVR | 2.25
DIEITTVGEEDAKRVIKELQKRNLEYHIEVHGNQWVIKVR | 2.29
DIEITTEGEEDAKRVIKELQKRNLEYHIEVHGNQWVIKVR | 2.41
DIEITTKGEEDAKRVIKELQKRNLEYHIEVHGNQWVIKVR | 2.1
DIEITTIGEEDAKRVIKELQKRNLEYHIEVHGNQWVIKVR | 2.43
DIEITTTGEEDAKRVIKELQKRNLEYHIEVHGNQWVIKVR | 2.34
DIEITTYGEEDAKRVIKELQKRNLEYHIEVHGNQWVIKVR | 3.03
DIEITTWGEEDAKRVIKELQKRNLEYHIEVHGNQWVIKVR | 3.1
DIEITTGGEEDAKRVIKELQKRNLEYHIEVHGNQWVIKVR | 1.78
DIEITTSGEEDAKRVIKELQKRNLEYHIEVHGNQWVIKVR | 2.26
DIEITTAGEEDAKRVIKELQKRNLEYHIEVHGNQWVIKVR | 2.19
DIEITTQGEEDAKRVIKELQKRNLEYHIEVHGNQWVIKVR | 2.4
DIEITTLGEEDAKRVIKELQKRNLEYHIEVHGNQWVIKVR | 2.47
DIEITTDGEEDAKRVIKELQKRNLEYHIEVHGNQWVIKVR | 2.4
DIEITTMGEEDAKRVIKELQKRNLEYHIEVHGNQWVIKVR | 2.54
DIEITTCGEEDAKRVIKELQKRNLEYHIEVHGNQWVIKVR | 2.87
DIEITTFGEEDAKRVIKELQKRNLEYHIEVHGNQWVIKVR | 2.75
